Our source for the Kd values is paper PMC12561191.

The target in this test is BAX, the ligand protein coupled on the SPR chip, Q07812. Briefly: SPR. Conditions: natural protein; chains chain; remark: other sources report otherwise.
Sequence of BAX, the ligand protein coupled on the SPR chip, Q07812 (Q07812 whole entry): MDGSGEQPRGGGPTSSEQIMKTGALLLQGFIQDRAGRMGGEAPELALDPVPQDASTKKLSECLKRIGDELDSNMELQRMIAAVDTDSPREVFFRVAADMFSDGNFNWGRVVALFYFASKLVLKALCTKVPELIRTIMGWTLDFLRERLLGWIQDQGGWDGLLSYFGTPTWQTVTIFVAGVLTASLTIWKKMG

B1: recombinant human MANF (rhMANF) protein, P55145 25-182 (protein)
chain: LRPGDCEVCISYLGRFYQDLKDRDVTFSPATIENELIKFCREARGKENRLCYYIGATDDAATKIINEVSKPLAHHIPVEKICEKLKKKDSQICELKYDKQIDLSTVDLKKLRVKELKKILDDWGETCKGCAEKSDYIRKINELMPKYAPKAASARTDL
A word on the Kd: it is the free concentration of one partner at which half of the binding sites on the other are occupied at equilibrium, for simple one-to-one binding. As for B1, the Kd turned out to be 11.3 µM.
